Assays:
[1] = target: T1, integrin VLA-4 on HL60 cells (UniProt P13612 34-1032; P05556 21-798); experiment: adhesion of HL60 cells to fragment-coated plates
T1 construct: whole, on cells; HL60 cells express VLA-4 but not VLA-5 by flow cytometry; also called CD49d

[2] = target: T1, integrin VLA-4 on HL60 cells; experiment: adhesion of HL60 cells (VLA-4 positive) to fragment-coated plates

T1 sequence (P13612 34-1032, chain 1 of 2): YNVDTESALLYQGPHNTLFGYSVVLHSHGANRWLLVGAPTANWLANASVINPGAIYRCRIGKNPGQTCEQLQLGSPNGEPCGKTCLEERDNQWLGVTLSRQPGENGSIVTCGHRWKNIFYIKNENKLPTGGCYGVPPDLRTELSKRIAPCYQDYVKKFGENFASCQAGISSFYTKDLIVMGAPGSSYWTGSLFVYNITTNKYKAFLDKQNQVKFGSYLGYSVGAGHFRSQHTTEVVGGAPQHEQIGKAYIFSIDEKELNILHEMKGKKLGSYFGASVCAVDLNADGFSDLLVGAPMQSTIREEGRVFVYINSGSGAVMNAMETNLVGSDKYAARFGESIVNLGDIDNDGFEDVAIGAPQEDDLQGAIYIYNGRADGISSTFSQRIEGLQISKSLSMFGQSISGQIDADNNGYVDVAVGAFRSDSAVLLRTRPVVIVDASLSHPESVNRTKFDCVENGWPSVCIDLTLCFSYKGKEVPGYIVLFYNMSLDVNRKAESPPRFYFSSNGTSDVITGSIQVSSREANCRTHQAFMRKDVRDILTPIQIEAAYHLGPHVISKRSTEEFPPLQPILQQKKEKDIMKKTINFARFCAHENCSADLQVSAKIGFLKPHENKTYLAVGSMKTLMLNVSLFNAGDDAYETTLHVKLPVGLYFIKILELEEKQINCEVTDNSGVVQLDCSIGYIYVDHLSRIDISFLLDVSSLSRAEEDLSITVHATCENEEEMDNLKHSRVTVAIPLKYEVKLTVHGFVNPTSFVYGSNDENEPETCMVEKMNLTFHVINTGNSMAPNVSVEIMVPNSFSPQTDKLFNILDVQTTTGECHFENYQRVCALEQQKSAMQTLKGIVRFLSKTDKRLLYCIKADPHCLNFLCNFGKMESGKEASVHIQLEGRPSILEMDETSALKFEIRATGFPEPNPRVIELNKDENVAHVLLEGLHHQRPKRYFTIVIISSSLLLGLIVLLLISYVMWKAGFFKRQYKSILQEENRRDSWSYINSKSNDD
T1 sequence (P05556 21-798, chain 2 of 2): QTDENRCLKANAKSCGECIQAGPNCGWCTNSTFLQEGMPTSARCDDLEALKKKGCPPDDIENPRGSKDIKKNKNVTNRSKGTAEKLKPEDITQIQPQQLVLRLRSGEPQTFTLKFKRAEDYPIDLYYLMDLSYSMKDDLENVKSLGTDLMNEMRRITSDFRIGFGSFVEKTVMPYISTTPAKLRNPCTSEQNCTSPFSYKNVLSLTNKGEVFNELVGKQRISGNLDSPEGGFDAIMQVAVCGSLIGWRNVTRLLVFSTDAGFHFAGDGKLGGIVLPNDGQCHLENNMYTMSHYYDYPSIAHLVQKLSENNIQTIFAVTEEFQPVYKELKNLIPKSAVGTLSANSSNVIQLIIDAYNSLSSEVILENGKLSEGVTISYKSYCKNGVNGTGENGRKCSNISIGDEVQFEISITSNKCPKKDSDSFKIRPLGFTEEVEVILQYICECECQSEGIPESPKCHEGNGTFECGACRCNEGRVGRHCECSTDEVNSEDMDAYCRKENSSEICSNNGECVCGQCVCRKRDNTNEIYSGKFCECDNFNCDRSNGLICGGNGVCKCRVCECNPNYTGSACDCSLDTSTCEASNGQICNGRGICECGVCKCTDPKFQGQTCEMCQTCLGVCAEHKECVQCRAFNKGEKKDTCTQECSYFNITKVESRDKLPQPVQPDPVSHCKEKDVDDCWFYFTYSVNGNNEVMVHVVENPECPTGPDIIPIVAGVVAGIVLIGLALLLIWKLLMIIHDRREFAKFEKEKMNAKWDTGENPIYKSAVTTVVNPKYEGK

| binding result [1] | binding result [2] | Binder |
| --- | --- | --- |
| no binding (tested: 2 µg/cm^2 coating) | – | recombinant fibronectin fragment H-271 (other, human, UniProt P02751 1812-2082, looked up) AIPAPTDLKFTQVTPTSLSAQWTPPNVQLTGYRVRVTPKEKTGPMKEINLAPDSSSVVVSGLMVATKYEVSVYALKDTLTSRPAQGVVTTLENVSPPRRARVTDATETTITISWRTKTETITGFQVDAVPANGQTPIQRTIKPDVRSYTITGLQPGTDYKIYLYTLNDNARSSPVVIDASTAIDAPSNLRFLATTPNSLLVSWQPPRARITGYIIKYEKPGSPPREVVPRPRPGVTEATITGLEPGTEYTIYVIALKNNQKSEPLIGRKKT |
| – | binds | recombinant fibronectin fragment H-296 (other, human, UniProt P02751 1812-2082, looked up, Expressed in E. coli) AIPAPTDLKFTQVTPTSLSAQWTPPNVQLTGYRVRVTPKEKTGPMKEINLAPDSSSVVVSGLMVATKYEVSVYALKDTLTSRPAQGVVTTLENVSPPRRARVTDATETTITISWRTKTETITGFQVDAVPANGQTPIQRTIKPDVRSYTITGLQPGTDYKIYLYTLNDNARSSPVVIDASTAIDAPSNLRFLATTPNSLLVSWQPPRARITGYIIKYEKPGSPPREVVPRPRPGVTEATITGLEPGTEYTIYVIALKNNQKSEPLIGRKKTDELPQLVTLPHPNLHGPEILDVPST |

— patent US8889419 (INDIANA UNIVERSITY RESEARCH AND TECHNOLOGY, dated 2014)
